B1: Gin18TALE+1 (dsDNA)
DNA 1: AGAAGGTATTTATATCCAAAACCATGGTTTACAATATAAATACCTTCT
DNA 2: AGAAGGTATTTATATTGTAAACCATGGTTTTGGATATAAATACCTTCT
B2: Gin20TALE+0 (dsDNA)
DNA 1: AGAAGGTATTTATATCCAAAACCATGGTTTACAGTATAAATACCTTCT
DNA 2: AGAAGGTATTTATACTGTAAACCATGGTTTTGGATATAAATACCTTCT
B3: Gin18TALE+0 (dsDNA)
DNA 1: AGAAGGTATTTATACCAAAACCATGGTTTACATATAAATACCTTCT
DNA 2: AGAAGGTATTTATATGTAAACCATGGTTTTGGTATAAATACCTTCT

Legend:
Assay in all cases: cell_activity; E. coli
Conditions in all cases: tags: 6-His
[1] = biological target: T1, pN-TALER IV-1-EE2 (GinL7C7-EE2-TALE13) (synthetic)
T1 chain: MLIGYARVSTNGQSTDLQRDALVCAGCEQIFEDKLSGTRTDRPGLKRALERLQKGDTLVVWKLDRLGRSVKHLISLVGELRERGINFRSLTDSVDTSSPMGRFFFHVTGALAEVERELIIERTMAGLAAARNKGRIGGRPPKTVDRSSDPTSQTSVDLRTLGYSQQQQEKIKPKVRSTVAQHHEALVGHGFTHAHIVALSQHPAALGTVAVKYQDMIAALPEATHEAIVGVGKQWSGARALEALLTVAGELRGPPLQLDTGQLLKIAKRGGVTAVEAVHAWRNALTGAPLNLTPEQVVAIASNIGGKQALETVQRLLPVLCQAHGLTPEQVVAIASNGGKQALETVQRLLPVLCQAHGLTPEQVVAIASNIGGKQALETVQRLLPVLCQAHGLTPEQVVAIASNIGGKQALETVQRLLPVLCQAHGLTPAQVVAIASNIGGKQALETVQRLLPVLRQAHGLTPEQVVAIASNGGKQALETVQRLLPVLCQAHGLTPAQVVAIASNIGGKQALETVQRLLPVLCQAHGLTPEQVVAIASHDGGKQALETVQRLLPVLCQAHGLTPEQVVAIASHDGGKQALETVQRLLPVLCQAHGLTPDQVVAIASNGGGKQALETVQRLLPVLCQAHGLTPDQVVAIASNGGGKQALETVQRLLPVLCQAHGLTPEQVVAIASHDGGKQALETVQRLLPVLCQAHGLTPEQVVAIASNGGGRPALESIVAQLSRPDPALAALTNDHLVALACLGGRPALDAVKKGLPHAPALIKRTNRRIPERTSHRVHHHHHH

sN-TALER IV-3 = biological target: T2, sN-TALER IV-3 (synthetic)
T2 chain: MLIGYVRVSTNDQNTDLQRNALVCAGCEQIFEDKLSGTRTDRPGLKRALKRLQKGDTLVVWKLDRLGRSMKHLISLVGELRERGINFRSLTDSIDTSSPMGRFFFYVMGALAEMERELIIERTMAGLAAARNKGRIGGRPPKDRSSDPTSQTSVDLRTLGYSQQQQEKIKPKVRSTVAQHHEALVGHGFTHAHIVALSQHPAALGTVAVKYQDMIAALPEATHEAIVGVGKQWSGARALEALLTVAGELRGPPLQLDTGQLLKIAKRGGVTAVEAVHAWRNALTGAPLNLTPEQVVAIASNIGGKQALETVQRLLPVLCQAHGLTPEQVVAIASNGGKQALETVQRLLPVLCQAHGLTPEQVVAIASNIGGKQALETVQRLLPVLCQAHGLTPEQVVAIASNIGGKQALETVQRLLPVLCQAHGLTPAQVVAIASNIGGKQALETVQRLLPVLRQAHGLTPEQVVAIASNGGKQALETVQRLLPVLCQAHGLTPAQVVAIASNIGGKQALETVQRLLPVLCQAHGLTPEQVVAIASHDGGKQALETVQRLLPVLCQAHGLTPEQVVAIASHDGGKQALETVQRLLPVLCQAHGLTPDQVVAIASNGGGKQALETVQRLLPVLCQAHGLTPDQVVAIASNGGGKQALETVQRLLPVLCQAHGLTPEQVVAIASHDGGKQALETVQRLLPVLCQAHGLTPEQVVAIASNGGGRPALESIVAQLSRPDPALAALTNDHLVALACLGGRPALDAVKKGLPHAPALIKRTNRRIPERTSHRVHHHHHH
Description: (§1) To test for recombination, E. coli DH5alpha cells were co-transformed with different combinations of TALER expression construct and TALER reporter construct pairs (Tables 6 and 7). The N-TALER expression and reporter constructs were in an approximate 1:1 mass ratio during the transformation. The co-transformed bacteria were plated on media with chloramphenicol, kanamycin, and X-gal then incubated at 37° C. for 18 to 36 hours. Control samples consisted of transformations using the reporter construct alone. Control transformants were similarly plated. The bacterial transformation protocol was either heat shock or electroporation per standard molecular biology techniques.

sN-TALER IV-4 = biological target: T3, sN-TALER IV-4 (synthetic)
T3 chain: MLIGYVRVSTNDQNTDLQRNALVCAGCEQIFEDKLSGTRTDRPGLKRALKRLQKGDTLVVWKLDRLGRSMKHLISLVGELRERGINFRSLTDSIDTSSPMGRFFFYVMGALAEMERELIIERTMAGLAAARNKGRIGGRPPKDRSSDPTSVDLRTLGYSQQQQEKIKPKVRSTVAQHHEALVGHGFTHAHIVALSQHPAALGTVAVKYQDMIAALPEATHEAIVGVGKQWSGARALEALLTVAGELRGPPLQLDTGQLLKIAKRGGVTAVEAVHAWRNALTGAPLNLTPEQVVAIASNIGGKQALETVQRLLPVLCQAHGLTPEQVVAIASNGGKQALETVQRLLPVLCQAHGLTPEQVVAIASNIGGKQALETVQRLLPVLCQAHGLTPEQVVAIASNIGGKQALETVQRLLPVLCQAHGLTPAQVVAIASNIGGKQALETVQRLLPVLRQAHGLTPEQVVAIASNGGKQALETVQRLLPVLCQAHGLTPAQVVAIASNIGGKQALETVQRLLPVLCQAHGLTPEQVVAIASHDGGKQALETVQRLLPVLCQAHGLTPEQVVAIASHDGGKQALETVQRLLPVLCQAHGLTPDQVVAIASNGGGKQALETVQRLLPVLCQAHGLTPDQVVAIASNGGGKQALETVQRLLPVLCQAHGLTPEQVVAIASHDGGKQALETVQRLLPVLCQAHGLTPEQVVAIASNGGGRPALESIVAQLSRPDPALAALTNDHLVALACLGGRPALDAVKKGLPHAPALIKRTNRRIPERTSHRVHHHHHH
Description: as §1

| Binder | activity [1] [score] | activity (sN-TALER IV-3) [score] | activity (sN-TALER IV-4) [score] |
| --- | --- | --- | --- |
| B1 | 1 | – | – |
| B2 | 1 | 1 | 1 |
| B3 | 1 | 2 | 4 |
